{"source": "paper PMC2659760", "proteins": {"B1": {"name": "bovine plasma amine oxidase (BPAO) (Bos taurus) (protein)", "chain": "REEGGVGSEEGVGKQCHPSLPPRCPSRSPSDQPWTHPDQSQLFADLSREELTTVMSFLTQQLGPDLVDAAQARPSDNCVFSVELQLPPKAAALAHLDRGSPPPAREALAIVFFGGQPQPNVTELVVGPLPQPSYMRDVTVERHGGPLPYYRRPVLLREYLDIDQMIFNRELPQAAGVLHHCCSYKQGGQKLLTMNSAPRGVQSGDRSTWFGIYYNITKGGPYLHPVGLELLVDHKALDPADWTVQKVFFQGRYYENLAQLEEQFEAGQVNVVVIPDDGTGGFWSLKSQVPPGPTPPLQFHPQGPRFSVQGNRVASSLWTFSFGLGAFSGPRVFDVRFQGERLAYEISLQEAGAVYGGNTPAAMLTRYMDSGFGMGYFATPLIRGVDCPYLATYMDWHFVVESQTPKTLHDAFCVFEQNKGLPLRRHHSDFLSHYFGGVAQTVLVFRSVSTMLNYDYVWDMVFYPNGAIEVKLHATGYISSAFLFGAARRYGNQVGEHTLGPVHTHSAHYKVDLDVGGLENWVWAEDMAFVPTAIPWSPEHQIQRLQVTRKQLETEEQAAFPLGGASPRYLYLASKQSNKWGHPRGYRIQTVSFAGGPMPQNSPMERAFSWGRYQLAITQRKETEPSSSSVFNQNDPWTPTVDFSDFINNETIAGKDLVAWVTAGFLHIPHAEDIPNTVTVGNGVGFFLRPYNFFDQEPSMDSADSIYFREGQDAGSCEINPLACLPQAATCAPDLPVFSHGGYPEY"}}, "key": {"[1]": {"substrate": "NCc1ccccc1", "experiment": "Substrate activity with BPAO", "format": "biochemical, bovine", "conditions": "other: UV-vis spectrophotometry, pH 7.2 phosphate buffer, 30 °C"}, "[2]": {"substrate": "COc1ccc2cc(CN)ccc2c1", "experiment": "Substrate activity with BPAO", "format": "biochemical, bovine", "conditions": "other: UV-vis spectrophotometry, pH 7.2 phosphate buffer, 30 °C"}}, "data": [{"protein": "B1", "values": [{"measurement": "Km", "setting": "[1]", "value": "1.77±0.24", "unit": "mM mM"}, {"measurement": "kcat", "setting": "[1]", "value": "1.23 ± 0.06", "unit": "s⁻¹"}, {"measurement": "kcat/Km", "setting": "[1]", "value": 695, "unit": "M⁻¹ s⁻¹"}, {"measurement": "Km", "setting": "[2]", "value": "0.74±0.15", "unit": "mM mM"}, {"measurement": "kcat", "setting": "[2]", "value": "1.15 ± 0.06", "unit": "s⁻¹"}, {"measurement": "kcat/Km", "setting": "[2]", "value": 1550, "unit": "M⁻¹ s⁻¹"}]}]}
